Like-named read-outs stand apart in the source and are kept apart here. No end group written: not given here.
Assays:
MBP [1] = target: T1, MBP (Escherichia coli, UniProt P0AEX9); conditions: cited from earlier work
T1 construct: made in house; host or cells: E. coli BL21(DE3)

MBP [2] = target: T1, MBP; assay: Surface Plasmon Resonance, immobilized MBP, peptides as analytes; assay type: binding; conditions: for SPR signal variations in the explored concentration range: dose response assay
Procedure: The interactions between the protein and computationally optimized peptides were measured using the BIAcore 3000 (GE Healthcare Milano, Italy). […] Residual reactive groups were deactivated by treatment with 1 M ethanolamine hydrochloride, pH 8.5. The reference channel was activated with EDC/NHS and deactivated with ethanolamine. The binding assays were carried out at 20 μL /min at 25°C, with 4.5 min contact-time. Peptides were diluted in the HBS running buffer (10 mM Hepes, 150 mM NaCl, 3 mM EDTA, pH 7.4). Analyte injections were performed at the indicated concentrations. The sensor surface was regenerated by using 1–3 washes of 10mM NaOH for 1 minute. The association phase (kon) was followed for 250s, whereas the dissociation phase (koff) was followed for 300 s. The instrument BIAevaluation analysis package (version 4.1, GE Healthcare, Milano, Italy) was used to subtract the signal of the reference channel. Conversely, an affinity steady state model was applied to fit the RUmax data versus peptides concentrations and fitting was performed with GraphPad Prism v4.00 using the one-site binding equation [53, 54].

OPPA = conditions: KAK+OPPA; cited from earlier work
[3] = immobilized MBP on CM5 chip, 25°C, HBS pH 7.4

Row | Substance | KD (SPR determined) (MBP [2]; [3]) | also measured
1 | maltotriose | – | experimental binding energy (MBP [1]; compared with the closed configuration score): -38.9 kJ/mol; experimental binding energy (MBP [1]; compared with the open configuration score): -35.1 kJ/mol
2 | YGDGYFRF [MBP-10, peptide along the minimization path of MBP-9] | No binding | SPR signal variations in the explored concentration range (MBP [2]): did not give valuable signal variations
3 | PQYPPHDN [MBP-4, computationally designed octapeptide] | CBE | –
4 | GLPKPGGN [MBP-5, computationally designed octapeptide] | CBE | –
5 | KAK | – | experimentally determined binding energy (OPPA): -41 kJ/mol
6 | WHPRPVWE-NH2 [MBP-8] | – | Kd (MBP [2]; immobilized MBP on CM5 chip, 25°C, HBS pH 7.4, read-out: KD (SPR determined)): 200 ± 5 µM
7 | WGTNGGTR [MBP-2, computationally designed octapeptide] | CBE | –
8 | WSPNFWWR [MBP-7, computationally designed octapeptide] | CBE | –
9 | YHDGYFRF [MBP-11, peptide along the minimization path of MBP-9] | No binding | SPR signal variations in the explored concentration range (MBP [2]): did not give valuable signal variations
